In patent publication US8586530B2, “Modulation of inhibition of ferrochelatase by N-methyl protoporphyrin” (University of South Florida, priority 2006, dated 2013):
Where a chain is given by its changes, count along the chain named. Names and notes keep the numbering of the source.

Columns and labels:
[1] = Steady-state kinetics of ferrochelatase and P255 variants; assay type: biochemical, murine; details: for Km: protoporphyrin, read-out: Km^PPIX
Source text: One possible explanation for these findings is that the mechanism of interaction between the enzyme and the protoporphyrin substrate differs from that for inhibitor binding. It is conceivable that the active site of ferrochelatase is optimized for interaction with the protoporphyrin substrate and retains a certain degree of plasticity towards this end. Possibly, this facilitates the induction of porphyrin deformation in the protein matrix, and in so doing, ensures the catalytic reaction to proceed. In contrast, the constraints of the active site towards NMPP are presumably more stringent than towards the protoporphyrin substrate and any alterations of the active site affect the selectivity towards NMPP. Another possible explanation, and not necessarily mutually exclusive from the former, is that mutations introduced in the active site (e.g., at the P255 position) cause an alteration of the regiospecificity of ferrochelatase, such that the mutated active site can accommodate either a regioisomer or a combination of regioisomers of NMPP different from those of the wild-type active site. It is worth noting that 1) the commercially available NMPP used in this study consists of a racemic mixture of the eight potential isomers and 2) only one NMPP isomer was identified in the crystal structure of the B. subtillis ferrochelatase.
Protein Purification. Wild-type, murine ferrochelatase and variants were over-expressed, under the control of the E. coli alkaline phosphatase promoter phoA, in BL21(DE3) cells. The purification of the recombinant proteins bearing a N-terminal penta-histidine tag, assessment of the purity by sodium dodecyl sulfate-polyacrylamide gel electrophoresis and determination of protein concentration and enzymatic activity were as described previously (Shi and Ferreira 2004).

E. coli Δvis cells = experiment: Genetic selection in E. coli: growth of Δvis transformants on NMPP-containing plates; assay type: cell-based, Escherichia coli; details: medium containing more than 20 μM NMPP
Procedure: To isolate Escherichia coli Δvis transformants harboring loop variants more tolerant to NMPP than wild-type ferrochelatase, 33 variants isolated from a library of 214 functional, ferrochelatase clones were plated on LB-ampicilin medium containing 0.2 μM, 2 μM or 20 μM NMPP. E. coli Δvis cells can only grow when hemin is added to the medium or when the cells are transformed with an active ferrochelatase expression plasmid. Transformants harboring a subset of the functional loop variants including K250N, V251L, P255R, P255G, K250M/V251L/W256Y and Q248P/S249G/250P/G252W were grown onto LB-ampicilin plates with increasing concentrations of NMPP. […] Based on this observation, the P255 variants were selected for further characterization.
Genetic Selection in E. coli. E. coli Δvis cells harboring plasmids encoding active, ferrochelatase variants isolated from a random sequence library of the loop motif were grown 16-18 h at 37° C. in LB agar medium containing 50 μg/mL of ampicillin and varying concentrations of NMPP. For the preparation of the NMPP-containing LB-ampicilin agar plates, a 2 mM stock solution of NMPP was made by dissolving NMPP in 20 mM NH4OH containing 2% Tween-20. The solution was filter-sterilized and kept at 4° C. The stock solution was diluted 100-, 1000- and 10000-fold to prepare LB-ampicilin plates containing 20 μM, 2 μM and 0.2 μM NMPP. Δvis cells transformed with wild-type ferrochelatase and functional variants were grown in LB medium containing 50 μg/mL ampicilin and 0.4% (w/v) glucose at 37° C., overnight, with shaking at 220 RPM. Each of the overnight cultures was diluted 20-fold into fresh medium and grown at 37° C. for ˜1 hr until OD600 reached ˜0.4-0.5. Subsequently, these cultures were diluted with LB medium by 10^6 and 100 μl aliquots of the diluted stock were spread on LB-ampicilin agar plates and LB-ampicilin agar plates containing NMPP at 0.2 μM, 2 μM and 20 μM, respectively. The plates were incubated at 37° C. for 16 hr, and the colonies on each plate were counted. […]

B1: P255R: murine ferrochelatase variant in which P255 was replaced with arginine (protein, UniProt P22315 54-422, looked up, variant P255R)
Ferrochelatase, mitochondrial: TTKPQAQPERRKPKTGILMLNMGGPETLGEVQDFLQRLFLDRDLMTLPIQNKLAPFIAKRRTPKIQEQYRRIGGGSPIKMWTSKQGEGMVKLLDELSPATAPHKYYIGFRYVHPLTEEAIEEMERDGLERAIAFTQYPQYSCSTTGSSLNAIYRYYNEVGQKPTMKWSTIDRWPTHPLLIQCFADHILKELNHFPEEKRSEVVILFSAHSLPMSVVNRGDPYPQEVGATVHKVMEKLGYPNPYRLVWQSKVGPVRWLGPQTDEAIKGLCERGRKNILLVPIAFTSDHIETLYELDIEYSQVLAQKCGAENIRRAESLNGNPLFSKALADLVHSHIQSNKLCSTQLSLNCPLCVNPVCRKTKSFFTSQQL
[1]
  kcat: 7.8 ± 0.8 min⁻¹
  Km: 2650 ± 440 nM
E. coli Δvis cells
  colony formation of Δvis cells expressing the enzyme: could form colonies

B2: P255G: murine ferrochelatase variant in which P255 was replaced with glycine (protein, UniProt P22315 54-422, looked up, variant P255G)
Ferrochelatase, mitochondrial: B1 Ferrochelatase, mitochondrial with R255G
[1]
  kcat: 5.9 ± 1.4 min⁻¹
  Km: 2510 ± 800 nM
E. coli Δvis cells
  colony formation of Δvis cells expressing the enzyme: could form colonies

B3: wild-type ferrochelatase: recombinant wild-type, murine ferrochelatase with N-terminal penta-histidine tag (protein, UniProt P22315 54-422, looked up)
Ferrochelatase, mitochondrial: B1 Ferrochelatase, mitochondrial with R255P
[1]
  kcat: 4.1 ± 0.3 min⁻¹
  Km: 1400 ± 200 nM
E. coli Δvis cells
  colony formation of Δvis cells expressing the enzyme: could not
